From the nanobody polyreactivity screen of Harvey et al. (2022)

assay: yeast display, Sf9 membrane polyspecificity reagent, FACS + sequencing; frameworks hold sequencing errors
How it was run: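 After 36–48 hours of galactose induction, yeast (Saccharomyces cerevisiae BJ5465) displaying a synthetic nanobody library were stained at 4 °C for 1 hour with 10% biotinylated, detergent-solubilized Sf9 membrane reagent. Streptavidin microbeads enriched the stained cells before FACS sorting into low and high (top ~1%) gates on anti-HA and streptavidin fluorescence. Each clone's polyreactivity label reflects its gate of origin.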

| Sequence | polyreactivity (PSR sort gate) |
| --- | --- |
| QVQLVESGGGLVQAGGSLRLSCAASGFTFGGNVMGWYRQAPGKESELVAAITYSGGSTNYADSVKGRFTISRDNAKNTVYLQMNSLKPEDTAVYYCAAGYSYVYWSESAYVYWGQGTQVSVSS | low polyreactivity |
| QVQLVESGGGLVQAGGSLRLSCAASGFTFGGYAMGWYRQAPGKERELVAAISGRGGRTYYADSVKGRFTISRDNAKNTVYLQMNSLKPEDTAVYYCAAPTNHWTRLSGDYWGQGTQVTVSS | high polyreactivity |
| QVQLVESGGGLVQAGGSLRLSCAASGFTFGGYAMGWYRQAPGNERELVAAISKSGGRTYYADSVKGRFTISRDNAKNTVYLQMNSLKPEDTAVYYCAASTIWHYDSWGQGTQVTVSS | high polyreactivity |
| QVQLVESGGGLVQAGGSLRLSCAASGFTFGKYCMGWYRQAPGKERELVAAISASGGITYYADSVKGRFTISRDNAKNTVYLQMNSLKPEDTAVYYCAARRYEPKAVYYWGQGTQVTVSS | high polyreactivity |
| QVQLVESGGGLVQAGGSLRLSCAASGFTFGKYGMGWYRQAPGKERELVAAISASGGITYYADSVKGRFTISRDNAKNTVYLQMNSLKPEDTAVYYCAVRRRYGAFISYDYWGQGTQVTVSS | high polyreactivity |
| QVQLVESGGGLVQAGGSLRLSCAASGFTFGKYTMGWYRQAPGKERELVAAISRSGGSTYYADSVKGRFTISRDIAKNTVYFQMNSLKPEDTAVYYCAVDYTYDMDYWGQGTHVTVSS | high polyreactivity |
| QVQLVESGGGLVQAGGSLRLSCAASGFTFGNNAMGWYRQAPGKERELVAGISRTGGRTYYSDSVKGRFTISRDNAKKTVYLKMNSLKPEDTAVYYCNAVSTLYTGYDYWGQGTQVTVSS | high polyreactivity |
| QVQLVESGGGLVQAGGSLRLSCAASGFTFGPYAMGWYRQAPGKERELVAAISQSGGRTSYADSVKGRFTISRDNAKNTVYLQMNSLKPEDTSVYYCAKRAYGYRSIYRMDYWGQGTQVTVSS | high polyreactivity |
| QVQLVESGGGLVQAGGSLRLSCAASGFTFGQYAMGWYRQAPGKERELVAAISWSGGSTYYADSVKGRFTISRDNAKNTVYLQMNSLKPEDTAVYYCGEDLGDYWGQGTQVTVSS | high polyreactivity |
| QVQLVESGGGLVQAGGSLRLSCAASGFTFGRNAMGWYRPAPGKEMELDATISKSGGSTYYEDSVKGRFTISRDNAKNTVYLQMYSLKPEDSAVYYCAARSRRLPGDYWGQATQVTVSS | low polyreactivity |
| QVQLVESGGGLVQAGGSLRLSCAASGFTFGRNAMGWYRQAPGKEREFVAAISKSGTSTYYADSVKGRFTISRDNAKNTVYLQMNSLKPEDTAVYYCARTIYAKRWDFDYWGQGTQVTVSS | low polyreactivity |
| QVQLVESGGGLVQAGGSLRLSCAASGFTFGRNAMGWYRQAPGKERELVARITTGGSTNYADSVKGRFTISRDHAKNTVDLQMNRLKPEDTAVYDCAATYRSLALFWTYGYWGQGTQVTVSS | low polyreactivity |
| QVQLVESGGGLVQAGGSLRLSCAASGFTFGRYAMGWYIQAPGKERELVAAINWSGTSTYYADSVKGRFTISRDNSKNTVYLQLNILKPEDTAVYYCAVRESGYHTTLYYWGQGTQVTVSS | high polyreactivity |
| QVQLVESGGGLVQAGGSLRLSCAASGFTFGRYAMGWYRQAPGKERELVAGITWSGGSTSYADSVKGRFTISRDNAKNTVYLQMNSLKPEDTAVYYCATRARYTRVHGRRYAYDYWGQGTQVTVSS | high polyreactivity |
| QVQLVESGGGLVQAGGSLRLSCAASGFTFGSNAMGWYRQAPGKERELVAAISWSGGRTYYADSVKGRFTISRDNAKNTVYLQMNSLKPEDTAVYYCNKQYVKPWYRGYYYWGQGTQVNVSS | high polyreactivity |
| QVQLVESGGGLVQAGGSLRLSCAASGFTFGSYAMGWYRQAPGKEREFVAAISLGGARTYYADSVKGRFTISRDNAKNTVYLQMNSLKPEYTAVYDCAATVRGVGYRYYYWGQGTQVTVSS | high polyreactivity |
| QVQLVESGGGLVQAGGSLRLSCAASGFTFGSYAMGWYRQAPGKERELVAAISSRGGSTYYADSVKGRFTISRDNAKNTVYLQMNSLKPEDTAVYYCNAGYGYIKQYPDYQSKYDYWGQGTQVTVSS | low polyreactivity |
| QVQLVESGGGLVQAGGSLRLSCAASGFTFGSYVMGWYRQAPGKERELVADISIRGGSTYYADSVKGRFTISRDNSKNTVYLQMNSLKPEDTAVYYCAASYFPFNSGRKVGYWGQGTQVTVSS | low polyreactivity |
| QVQLVESGGGLVQAGGSLRLSCAASGFTFGTYTMGWYRQAPGKERELVAAIRSSGGRTYYADSVKGRFTISRDNAKNTVYLQMNSLKPEDTAVYYCAAVLFGYPRTFGTWYDRYYYWGQGTQVTVSS | high polyreactivity |
| QVQLVESGGGLVQAGGSLRLSCAASGFTFGTYVMGWYRQAPGKERELVARITYGGGRTYYADSVKGRFTISRDNAKNTVYLQMNSLKPEDTAVYYCNARVTYSRYFKGYNYWGQGTQVTVSS | high polyreactivity |

| Sequence | polyreactivity (PSR sort gate) |
| --- | --- |
| QVQLVESGGGLVQAGGSLRLSCAASGFTFGVNAMGWYRQAPGKERELVAAISSSGGRTYYADSVKGRFTISRDNAKNTVYLQMNSLKQEDTAVYYCAARYVYTRGGPLKRDYWGQGTQVTVSS | high polyreactivity |
| QVQLVESGGGLVQAGGSLRLSCAASGFTFGVNAMGWYRQAPGKERELVAVITSGGNTYYADSVKWRFTISRDNAKNTVYLQMNSLKPEDTAVYYCAAYGRASWERDYWGQGTQVTVSS | low polyreactivity |
| QVQLVESGGGLVQAGGSLRLSCAASGFTFGVYAMGWYRQAPGKERELVAAISRSSGRTYYADSVKGRFTISRDNAKNTVYLQMNSLKPVDTAVYYCAADLRYYGYYTRFRYYEMDYWGQGTQVTVSS | high polyreactivity |
| QVQLVESGGGLVQAGGSLRLSCAASGFTFGVYAMGWYRQAPGKERELVAAISTTVGSTYYADSVKGRFTISRDNAKNTVYLQMNSLKPEDTAVYDCAAEYTGYINYYIYEYWGQGTQVTVSS | low polyreactivity |
| QVQLVESGGGLVQAGGSLRLSCAASGFTFGVYAMGWYRQAPGKERELVAAITSGGGRTYADSVKGRFTISRDNAKNTVYLQMNSLKPEDSAVYYCAAQQGISNGTGVSATNPMDYWGQGTQVTVSS | low polyreactivity |
| QVQLVESGGGLVQAGGSLRLSCAASGFTFGVYAMGWYRQAPGKERELVATISSSGSTNYADSVKGRFTISRDNAKNTVYLQMNSLKPEDSAVYYCAVYYLYRRRQYYYWGQGTKVTVSS | low polyreactivity |
| QVQLVESGGGLVQAGGSLRLSCAASGFTFGVYARGWYRQAPGKERELVAAISRSSGRTYYADSVKWRFTISRDNAKNTVYLQMNSLKPEDTAVYYCAADLRYYGYYTRFRYYEMDYWGQGTQVTVSS | high polyreactivity |
| QVQLVESGGGLVQAGGSLRLSCAASGFTFGWNAMGWYRQAPGKERELVAAITSGGITNYADSVKGRFTISRDNAMNTVYLQMNSLKPEDTAVYYCNARPTSRRSWYYWKGYDYWGQGTQVTVSS | high polyreactivity |
| QVQLVESGGGLVQAGGSLRLSCAASGFTFGYYAMGWYRQAPGKERELVAAINWSGGRTYYADSVKGRFTISRDNAKNTVYLQMNSLKPEDTAVYYCAASSRTKLYYWGQGTQVTVSS | high polyreactivity |
| QVQLVESGGGLVQAGGSLRLSCAASGFTFGYYAMGWYRQAPGKERELVAAISKSGGSTYYADSVKGRFTISRDNAKNTVYLQMNSLKPEDCAVYYCAAIASIRGYYYWGQGTQVNVSS | high polyreactivity |
| QVQLVESGGGLVQAGGSLRLSCAASGFTFGYYAMGWYRQAPGKERELVAAITYSGGSTYYADSVKGRFTISRDNAKNTVYLQMNSLNPEDTAVYYCNAYARRYYYGRWYGEFDYWGQGTQVTLSS | low polyreactivity |
| QVQLVESGGGLVQAGGSLRLSCAASGFTFGYYAMGWYRQAPGKERELVASISWRGGSTYYADSVKGRFTISRDNAKNTVYLQMNSLKPEDTAVYYCATKYTGPYYRTMNYWGQGTQVTVSS | high polyreactivity |
| QVQLVESGGGLVQAGGSLRLSCAASGFTFGYYAMGWYRQAPGKERELVASMTVRGGSTYYADSVKGRFTISRDNAKNTVYLQINSLKPEDTAVYYCAAKRYPTWYPSQRSRYDSWGQGTQVTVSS | high polyreactivity |
| QVQLVESGGGLVQAGGSLRLSCAASGFTFGYYGMGWYRQATGKEMELVAAIDCSGASTYYADSVKGRFTISRDNAKNTVDLQINSLKPEDSAVYYCNADRYLYSLYTYEYDYWGHGTQVTVSS | low polyreactivity |
| QVQLVESGGGLVQAGGSLRLSCAASGFTFHGYAMGWYRQAPGKERELVAAIRSGDRTYYADSVKGRFTISRDNAKNTVYLQMNSLKPEDTAVYYCAVVYGYLYRYSAKYDYWGQGTQVTVSS | low polyreactivity |
| QVQLVESGGGLVQAGGSLRLSCAASGFTFHKNAMGWYRQAPGKERELVAGISRRAGSTYYADSVKGRFTISRDNAKNTVYLQMNSLKPEDTAVYYCATDRARTGALYYWGQGTQVTVSS | high polyreactivity |
| QVQLVESGGGLVQAGGSLRLSCAASGFTFHKYAMGWYRQAPGKERELVAAITSSGGSTYYADSVKGRFTISRDNAKNTVYLQMNSLKPEDTAVYYCNARGGGRKSYDYWGQGTQVTVSS | high polyreactivity |
| QVQLVESGGGLVQAGGSLRLSCAASGFTFHRNAMGWYRQAPGKERELVAAISTRGGSTAYADSVKGRFTISRDNAKNTVYLQMNSLKPEDTAVYYCNTRYVGQRSTWVDQVRRYDYWGQGTQVTVSS | high polyreactivity |
| QVQLVESGGGLVQAGGSLRLSCAASGFTFHRNAMGWYRQAPGKERELVAAISTRGGSTAYADSVKGRFTISRDTAKNNVYLQMNSLKPEDTAVYYCNTRYVGQRSTWVDQVRRYDYWGQGTQVTVSS | high polyreactivity |
| QVQLVESGGGLVQAGGSLRLSCAASGFTFHWNAMGWYRPAPGKERELVAVITSGGSTNYADSVKGRFTISRDNAKNTVYLQMNSLKPEDTAVYYCAKEDGYSQLKTTFDEPGYGSWGQGTQVTVSS | low polyreactivity |
